The text below walks through data of patent US20110274697A1, “NOVEL USES” (priority 2009, published 2011).

The target in one test is T1, CD20 on JVM-3 cells (Homo sapiens, UniProt P11836).
T1 construct: medium level expression profile of CD20 on JVM-3 cells; endogenous in cells; host or cells: JVM-3 cells
T1 sequence (P11836 1-297): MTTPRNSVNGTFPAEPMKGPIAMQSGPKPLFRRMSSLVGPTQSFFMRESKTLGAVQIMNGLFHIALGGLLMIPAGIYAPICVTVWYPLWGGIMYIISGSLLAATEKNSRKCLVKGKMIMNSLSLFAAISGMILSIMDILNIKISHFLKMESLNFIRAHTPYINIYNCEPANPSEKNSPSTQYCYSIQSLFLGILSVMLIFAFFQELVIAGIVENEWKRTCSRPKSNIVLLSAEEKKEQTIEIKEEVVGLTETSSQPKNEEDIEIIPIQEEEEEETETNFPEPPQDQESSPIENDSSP
The experiment in a line: FACS binding of fluorescently labeled anti-CD20 antibodies to JVM-3 cells. The conditions noted are these: fluorescently labeled antibody, BD FACSCanto, FIG. 2. The procedure: One microgram of each antibody was prepared in PBS and five microliters of the Zenon human IgG labeling reagent (Component A) was added to the antibody solution. The mixture was incubated for five minutes at room temperature and then five microliters of the Zenon blocking reagent (Component B) was added to the reaction mixture. After another five minutes at room temperature the complexes were ready to be used. 5×10^6 cells/ml of viable JVM-3 cells were resuspended in PBS. 100 ul of the cells were added to each tube. 10 ul of human IgG was added to block non-specific binding. The cells and human IgG were incubated for 10 minutes. […] The mixture was incubated for an additional 30 minutes on ice in the dark. Then 500 ul of PBS was added to the cells and they were centrifuged for 5 minutes at 1000 rpm. The supernatant was removed and 500 ul of PBS was added and the cells were centrifuged again. Again the supernatant was removed and the cells resuspended in 300 ul of PBS. The cells were analyzed on a BD FACSCanto.
(In flow cytometry, cells or beads pass a laser one at a time.)

For test [1], the system named is cells with low CD20 density. Particulars: compared to rituximab; especially in cells with low CD20 density, as in CLL; cited from earlier work.

Turning to “ofatumumab: new generation, human monoclonal antibody that targets a membrane proximal, small loop epitope of the CD20 molecule; 2F2 antibody in WO2004/035607”, the “receptor bound on the cell surface” value with CD20 on JVM-3 cells is “bound more receptors on the cell surface than rituxan antibody did”. The “induction of tumor cell lysis by CDC activity” value in test [1] was “superior induction of tumor cell lysis by CDC”.
